Experiments:
Experiment in all cases: Kinase Profiling Assay
Type in all cases: biochemical
Conditions in all cases: 100 μM peptide
[1] = target: Met(Y1248H)(h) (Homo sapiens, UniProt P08581, Y1230H)
Summary of the method: (§1)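 First, MK2 inhibitor peptides were applied to a panel of 266 human kinases; then each kinase's activity was measured in duplicate to assess off-target inhibition.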

[2] = target: T1, EphA8(h) (Homo sapiens, UniProt P29322)
T1 sequence (P29322 28-1005): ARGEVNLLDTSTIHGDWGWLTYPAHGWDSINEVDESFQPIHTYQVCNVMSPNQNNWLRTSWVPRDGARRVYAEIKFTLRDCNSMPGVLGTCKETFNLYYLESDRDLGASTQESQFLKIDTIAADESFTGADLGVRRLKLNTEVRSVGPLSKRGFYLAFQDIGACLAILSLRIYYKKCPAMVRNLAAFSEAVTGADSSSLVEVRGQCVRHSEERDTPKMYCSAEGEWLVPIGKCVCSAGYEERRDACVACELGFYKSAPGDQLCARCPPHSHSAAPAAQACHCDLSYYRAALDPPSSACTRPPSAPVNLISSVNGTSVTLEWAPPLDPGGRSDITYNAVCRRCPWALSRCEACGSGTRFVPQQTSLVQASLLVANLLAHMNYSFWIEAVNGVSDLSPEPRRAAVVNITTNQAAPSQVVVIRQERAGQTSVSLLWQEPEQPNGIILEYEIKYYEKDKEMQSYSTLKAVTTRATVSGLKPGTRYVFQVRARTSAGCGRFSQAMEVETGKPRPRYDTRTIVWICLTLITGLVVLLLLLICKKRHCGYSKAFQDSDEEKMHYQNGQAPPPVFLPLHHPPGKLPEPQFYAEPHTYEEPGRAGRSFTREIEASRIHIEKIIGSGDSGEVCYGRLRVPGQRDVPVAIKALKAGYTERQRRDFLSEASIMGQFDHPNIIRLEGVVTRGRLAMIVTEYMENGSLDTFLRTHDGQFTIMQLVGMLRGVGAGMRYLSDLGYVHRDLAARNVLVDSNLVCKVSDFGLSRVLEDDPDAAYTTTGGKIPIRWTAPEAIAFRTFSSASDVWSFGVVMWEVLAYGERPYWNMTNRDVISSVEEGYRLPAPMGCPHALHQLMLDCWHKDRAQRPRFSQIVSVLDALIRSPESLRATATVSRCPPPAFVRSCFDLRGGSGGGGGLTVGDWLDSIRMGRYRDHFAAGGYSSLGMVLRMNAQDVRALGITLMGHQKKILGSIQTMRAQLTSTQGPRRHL
Summary of the method: as §1

[3] = target: Src(T341M)(h) (Homo sapiens, UniProt P12931, T341M)
Summary of the method: as §1

[4] = target: SRPK2(h) (Homo sapiens, UniProt P78362)
SRPK2(h), sequence (P78362 whole entry): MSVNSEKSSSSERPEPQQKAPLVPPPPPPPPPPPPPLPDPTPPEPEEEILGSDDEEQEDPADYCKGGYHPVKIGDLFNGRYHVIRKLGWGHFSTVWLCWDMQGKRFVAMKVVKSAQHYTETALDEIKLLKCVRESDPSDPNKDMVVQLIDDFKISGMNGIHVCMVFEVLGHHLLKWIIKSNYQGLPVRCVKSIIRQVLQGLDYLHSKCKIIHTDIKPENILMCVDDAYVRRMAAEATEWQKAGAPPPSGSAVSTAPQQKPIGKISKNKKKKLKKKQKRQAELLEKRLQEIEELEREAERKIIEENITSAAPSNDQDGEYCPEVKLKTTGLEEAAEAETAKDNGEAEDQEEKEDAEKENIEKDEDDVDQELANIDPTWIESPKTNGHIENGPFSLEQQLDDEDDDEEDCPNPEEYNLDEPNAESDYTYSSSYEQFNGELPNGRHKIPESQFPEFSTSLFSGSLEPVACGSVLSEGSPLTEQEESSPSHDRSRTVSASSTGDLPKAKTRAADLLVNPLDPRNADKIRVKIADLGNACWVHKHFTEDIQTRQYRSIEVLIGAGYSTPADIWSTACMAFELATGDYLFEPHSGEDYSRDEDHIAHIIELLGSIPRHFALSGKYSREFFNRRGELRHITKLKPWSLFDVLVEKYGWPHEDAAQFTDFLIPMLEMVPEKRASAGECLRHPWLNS
Summary of the method: as §1

[5] = target: MAPK2(h) (Homo sapiens, UniProt P28482)
MAPK2(h), sequence (P28482 whole entry): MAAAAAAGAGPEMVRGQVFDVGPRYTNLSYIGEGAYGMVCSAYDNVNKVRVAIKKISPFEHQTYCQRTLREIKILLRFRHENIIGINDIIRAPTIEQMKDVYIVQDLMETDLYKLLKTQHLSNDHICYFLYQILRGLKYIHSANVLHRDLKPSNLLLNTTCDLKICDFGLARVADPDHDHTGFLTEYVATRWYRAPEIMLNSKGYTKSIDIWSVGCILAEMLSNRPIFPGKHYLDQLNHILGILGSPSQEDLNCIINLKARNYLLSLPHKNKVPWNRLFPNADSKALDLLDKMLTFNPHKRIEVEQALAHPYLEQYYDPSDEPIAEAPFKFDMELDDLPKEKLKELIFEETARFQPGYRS
Summary of the method: as §1

[6] = target: CDK7/cyclinH/MAT1(h) (Homo sapiens, UniProt P50613)
CDK7/cyclinH/MAT1(h), sequence (P50613 whole entry): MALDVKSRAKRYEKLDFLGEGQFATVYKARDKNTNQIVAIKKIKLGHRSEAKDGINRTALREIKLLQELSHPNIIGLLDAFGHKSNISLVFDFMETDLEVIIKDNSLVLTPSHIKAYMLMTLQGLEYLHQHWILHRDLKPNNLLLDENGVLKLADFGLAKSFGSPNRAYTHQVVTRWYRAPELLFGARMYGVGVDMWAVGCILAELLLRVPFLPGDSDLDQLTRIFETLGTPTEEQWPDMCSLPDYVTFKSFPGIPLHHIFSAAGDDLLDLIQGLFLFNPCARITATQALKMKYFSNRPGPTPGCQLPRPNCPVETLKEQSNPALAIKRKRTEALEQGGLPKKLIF
CDK7/cyclinH/MAT1(h), sequence (P51946 whole entry partner): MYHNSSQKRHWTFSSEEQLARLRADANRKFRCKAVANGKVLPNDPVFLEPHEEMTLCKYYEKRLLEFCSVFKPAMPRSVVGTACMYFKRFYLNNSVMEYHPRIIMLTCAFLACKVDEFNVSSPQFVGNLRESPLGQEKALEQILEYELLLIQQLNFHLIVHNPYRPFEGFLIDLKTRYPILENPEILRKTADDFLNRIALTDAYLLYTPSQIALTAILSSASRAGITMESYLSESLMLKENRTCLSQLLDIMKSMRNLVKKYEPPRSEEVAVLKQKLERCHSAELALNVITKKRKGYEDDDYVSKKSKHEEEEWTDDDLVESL
CDK7/cyclinH/MAT1(h), sequence (P51948 whole entry partner): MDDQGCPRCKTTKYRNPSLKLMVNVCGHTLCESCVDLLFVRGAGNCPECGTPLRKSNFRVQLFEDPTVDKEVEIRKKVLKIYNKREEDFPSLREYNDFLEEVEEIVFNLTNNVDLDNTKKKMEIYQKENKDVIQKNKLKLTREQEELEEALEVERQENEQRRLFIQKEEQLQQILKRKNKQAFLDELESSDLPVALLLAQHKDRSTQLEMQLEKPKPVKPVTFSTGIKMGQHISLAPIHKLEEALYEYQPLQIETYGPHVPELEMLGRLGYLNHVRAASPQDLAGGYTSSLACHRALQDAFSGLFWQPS
Summary of the method: as §1

[7] = target: Tie2(Y897S)(h) (Homo sapiens, UniProt Q02763, Y897S)
Tie2(Y897S)(h), sequence (Q02763 23-1124 Y897S): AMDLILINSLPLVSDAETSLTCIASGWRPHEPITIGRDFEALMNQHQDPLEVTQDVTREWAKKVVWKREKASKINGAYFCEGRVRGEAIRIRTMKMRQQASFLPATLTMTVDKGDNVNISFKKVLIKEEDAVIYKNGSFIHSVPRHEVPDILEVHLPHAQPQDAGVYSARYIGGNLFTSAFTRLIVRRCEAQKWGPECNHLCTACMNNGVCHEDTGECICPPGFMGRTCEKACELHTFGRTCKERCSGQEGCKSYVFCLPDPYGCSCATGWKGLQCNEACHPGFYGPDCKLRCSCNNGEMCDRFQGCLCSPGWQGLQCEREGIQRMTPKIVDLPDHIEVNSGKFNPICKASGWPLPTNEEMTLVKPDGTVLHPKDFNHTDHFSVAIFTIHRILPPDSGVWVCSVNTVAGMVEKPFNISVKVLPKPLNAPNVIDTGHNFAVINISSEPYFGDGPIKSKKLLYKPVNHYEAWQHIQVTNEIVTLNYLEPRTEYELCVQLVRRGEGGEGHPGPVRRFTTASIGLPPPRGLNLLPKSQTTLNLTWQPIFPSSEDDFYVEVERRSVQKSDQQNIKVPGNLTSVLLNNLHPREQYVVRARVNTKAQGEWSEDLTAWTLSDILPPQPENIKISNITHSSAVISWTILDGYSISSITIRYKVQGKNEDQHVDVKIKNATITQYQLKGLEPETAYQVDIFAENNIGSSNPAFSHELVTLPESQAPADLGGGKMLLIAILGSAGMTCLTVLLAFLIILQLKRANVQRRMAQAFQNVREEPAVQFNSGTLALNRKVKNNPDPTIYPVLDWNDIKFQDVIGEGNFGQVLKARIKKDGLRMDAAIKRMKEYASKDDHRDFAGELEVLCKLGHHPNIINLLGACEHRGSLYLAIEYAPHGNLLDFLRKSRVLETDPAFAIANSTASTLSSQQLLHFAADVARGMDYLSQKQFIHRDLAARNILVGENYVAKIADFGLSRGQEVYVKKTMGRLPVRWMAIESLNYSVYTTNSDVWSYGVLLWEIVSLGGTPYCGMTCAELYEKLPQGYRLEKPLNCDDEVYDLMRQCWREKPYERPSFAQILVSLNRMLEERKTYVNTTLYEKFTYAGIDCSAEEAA
Summary of the method: as §1

[8] = target: TrkA(h) (Homo sapiens, UniProt P04629)
TrkA(h), sequence (P04629 33-796): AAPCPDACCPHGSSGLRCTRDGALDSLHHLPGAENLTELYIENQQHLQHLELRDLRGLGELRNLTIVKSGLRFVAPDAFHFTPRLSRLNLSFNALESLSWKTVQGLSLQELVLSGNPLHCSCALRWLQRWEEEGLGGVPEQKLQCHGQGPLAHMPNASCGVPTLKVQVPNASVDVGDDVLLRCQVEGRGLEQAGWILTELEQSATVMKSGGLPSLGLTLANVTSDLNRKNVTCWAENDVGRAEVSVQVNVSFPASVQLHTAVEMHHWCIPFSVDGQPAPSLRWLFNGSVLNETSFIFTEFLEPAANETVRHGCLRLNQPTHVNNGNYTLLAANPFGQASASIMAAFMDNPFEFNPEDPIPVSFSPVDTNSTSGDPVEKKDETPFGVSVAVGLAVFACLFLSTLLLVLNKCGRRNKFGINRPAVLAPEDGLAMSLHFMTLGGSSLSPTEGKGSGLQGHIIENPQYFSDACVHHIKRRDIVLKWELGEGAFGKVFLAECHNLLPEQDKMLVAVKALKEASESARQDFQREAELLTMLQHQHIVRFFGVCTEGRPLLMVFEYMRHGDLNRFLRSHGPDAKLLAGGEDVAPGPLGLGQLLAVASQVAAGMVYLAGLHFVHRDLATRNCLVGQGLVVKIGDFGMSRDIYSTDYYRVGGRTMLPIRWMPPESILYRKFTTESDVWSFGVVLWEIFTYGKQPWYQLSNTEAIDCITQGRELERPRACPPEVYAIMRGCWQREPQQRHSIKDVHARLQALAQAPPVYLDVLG
Summary of the method: as §1

[9] = target: T2, EphA3(h) (Homo sapiens, UniProt P29320)
T2 sequence (P29320 21-983): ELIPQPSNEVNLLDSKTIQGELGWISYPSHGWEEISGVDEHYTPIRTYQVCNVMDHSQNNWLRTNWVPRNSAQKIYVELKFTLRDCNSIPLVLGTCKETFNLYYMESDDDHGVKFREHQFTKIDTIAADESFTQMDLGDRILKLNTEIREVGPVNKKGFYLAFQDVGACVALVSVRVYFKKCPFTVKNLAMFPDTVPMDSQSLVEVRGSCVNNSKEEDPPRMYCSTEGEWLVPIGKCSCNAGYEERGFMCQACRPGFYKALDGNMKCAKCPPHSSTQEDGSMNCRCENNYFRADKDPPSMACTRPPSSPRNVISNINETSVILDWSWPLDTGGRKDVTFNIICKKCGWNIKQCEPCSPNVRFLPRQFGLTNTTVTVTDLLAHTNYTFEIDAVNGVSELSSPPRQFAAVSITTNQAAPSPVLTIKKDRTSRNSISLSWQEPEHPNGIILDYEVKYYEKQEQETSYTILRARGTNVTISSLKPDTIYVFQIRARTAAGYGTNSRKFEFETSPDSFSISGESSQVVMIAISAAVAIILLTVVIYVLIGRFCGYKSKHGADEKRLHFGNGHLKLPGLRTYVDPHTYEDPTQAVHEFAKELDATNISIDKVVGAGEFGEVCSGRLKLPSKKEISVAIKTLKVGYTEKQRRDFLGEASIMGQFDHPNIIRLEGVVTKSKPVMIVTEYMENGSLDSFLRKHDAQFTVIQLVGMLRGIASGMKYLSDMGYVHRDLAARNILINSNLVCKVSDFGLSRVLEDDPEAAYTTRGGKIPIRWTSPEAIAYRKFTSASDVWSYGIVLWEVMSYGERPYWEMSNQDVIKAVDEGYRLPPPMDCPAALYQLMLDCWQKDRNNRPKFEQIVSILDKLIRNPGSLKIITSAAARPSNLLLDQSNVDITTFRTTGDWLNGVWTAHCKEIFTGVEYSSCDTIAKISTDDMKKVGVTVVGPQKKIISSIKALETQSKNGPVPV
Summary of the method: as §1

## KAFAKLAARLYRKALARQLGVAA [MMI-0400]
[1]
  Met(Y1248H)(h) % activity: 63%
[2]
  EphA8(h) % activity: 146%
[3]
  Src(T341M)(h) % activity: 76%
[4]
  SRPK2(h) % activity: 97%
[5]
  MAPK2(h) % activity: 93%
[6]
  CDK7/cyclinH/MAT1(h) % activity: 47%
[7]
  Tie2(Y897S)(h) % activity: 87%
[8]
  TrkA(h) % activity: 17%
[9]
  EphA3(h) % activity: 12%

## YARAAARQARAKALNRQLGVA (Mammalian) [MMI-0200]
[1]
  Met(Y1248H)(h) % activity: 153%
[2]
  EphA8(h) % activity: 133%
[3]
  Src(T341M)(h) % activity: 56%
[4]
  SRPK2(h) % activity: 100%
[6]
  CDK7/cyclinH/MAT1(h) % activity: 67%
[7]
  Tie2(Y897S)(h) % activity: 85%

## FAKLAARLYRKALARQLGVAA [MMI-0300]
[2]
  EphA8(h) % activity: 93%
[3]
  Src(T341M)(h) % activity: 70%
[5]
  MAPK2(h) % activity: 98%
[6]
  CDK7/cyclinH/MAT1(h) % activity: 65%
[7]
  Tie2(Y897S)(h) % activity: 83%
[8]
  TrkA(h) % activity: 25%
[9]
  EphA3(h) % activity: 6%

## HRRIKAWLKKIKALARQLGVAA (Mammalian) [MMI-0500]
[1]
  Met(Y1248H)(h) % activity: 126%
[2]
  EphA8(h) % activity: 337%
[3]
  Src(T341M)(h) % activity: 59%
[4]
  SRPK2(h) % activity: 80%
[5]
  MAPK2(h) % activity: 60%
[6]
  CDK7/cyclinH/MAT1(h) % activity: 15%
[7]
  Tie2(Y897S)(h) % activity: 80%
[8]
  TrkA(h) % activity: 24%
[9]
  EphA3(h) % activity: 33%
